# Measurements reported in patent US20150064134A1.
# Target: MAPKAP-K2(h) (human) (UniProt P49137)
# Assay: cell-based or functional assay
substance,measurement,value
MMI-0100 (peptide),IC50 (radiometric kinase activity assay),22 µM
